pIC50, pKd: −log10 of the molar value.

In data set [1] the target is beta-NGF (Homo sapiens) (UniProt P01138). Description: cell_activity. The following applies: PC12 neurite growth, 0.38 nM NGF.
Data set [2] has the same target. Kind of data set: filter. The following applies: BndU at Z' (n) positions [n positions 30,37,38,43,44,45,51,52,54 = modified dU]; SB17T-0.002, 37 C; Zorbax resin capture.

beta-NGF (Homo sapiens), sequence (P01138 122-241): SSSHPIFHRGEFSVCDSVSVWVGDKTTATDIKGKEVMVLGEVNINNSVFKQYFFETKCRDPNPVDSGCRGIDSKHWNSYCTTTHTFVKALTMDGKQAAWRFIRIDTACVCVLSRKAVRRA

One may read the pIC50 as the IC50 on a negative log10 scale, so that one unit is a factor of ten. Lower therefore signals a high IC50. For the sequence “CATGAGGACTTGGGGTTTAGCCGTTGTG [2426-66-50]”, the pIC50 with beta-NGF (Homo sapiens) [1] (BndU at Z' (n) positions, 3'-idT in cell assays [n positions 3,10,11,16,17,18,24,25,27 = modified dU]) was 9.00. For orientation: pKd means −log10 of the Kd, conventionally taken in molar units. Lower therefore signals a large Kd. Regarding “GAGTGACCGTCTGCCTGCAGCGGGACACATGAGGACTTGGGGTTTAGCCGTTGTGGCACAGAGAAGAAACAAGACC [2426-66]”, the pKd in the data set with beta-NGF (Homo sapiens) [2] was 8.30. In the data set with beta-NGF (Homo sapiens) [1] (BndU at Z' (n) positions [n positions 30,37,38,43,44,45,51,52,54 = modified dU], 3'-idT), this sequence showed a pIC50 of 8.70.

Source of the values: patent US20130012693.
